Molecular target: calmodulin (full-length wild-type CaM) (human, UniProt P0DP23 1-149)
Experiment: circular dichroism

B1: pCaN, peptide encompassing the CaM-binding domain of calcineurin A (residues 391-414) (peptide)
peptide: not shown
B1: binds.

Reference: article PMC4900146 (Biochemistry, 2016)
